Among the data in the supplement of paper PMC10126150 are switch fluorescence ratio values, retold here.

± gives the standard deviation of the averaged measurements.

The series deals with ATP. Nature of the series: switch fluorescence ratio, 500 uM ATP over buffer (Cy3 cluster intensity, sum of 5 cycles each) (fold (ratio)); higher = stronger signal-on switching upon ATP binding; sequences stand for … in TCGTCGGCAGCGTCAGATGTGTATAAGAGACAGTTTTTTTTTTTTTTTTTTTTTTTTT…TC. The following applies: aptamer strand: ATP DNA aptamer (quencher-CACCTGGGGGAGTATTGCGGAGGAAGG + anchor), 100 nM annealed; ATP concentration: 500 uM. In outline:
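Values give the fluorescence ratio for each switch-domain sequence, averaged from per-cluster ratios of summed target-cycle to summed buffer-cycle Cy3 intensity. The Cy3-labelled switching-strand clusters sat on a modified Illumina MiSeq flow-cell, were annealed to 100 nM quencher-labelled ATP aptamer, and were imaged in selection buffer, then after 15 min with 500 uM ATP at 22 °C. Five cycles ran with NaOH stripping and re-annealing between them, and clusters outside 100-1000 RFU were excluded.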
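Further: ATP exposure 15 min at 22 °C before imaging.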

Take TGAGGGGCGA: the switch fluorescence ratio was found to be 0.989 ± 0.028.
Take TGAGGGGGAG: the switch fluorescence ratio was found to be 1.01 ± 0.04.
Then TGAGGGGGGA, with 1 ± 0.036.
Then TGAGGGTCCT, with 1.02 ± 0.01; and TGAGGGTTTT, with 0.997 ± 0.02.
Then TGAGGTACCG, with 1.0235 ± 0.00091; and TGAGGTCAAA, with 1.07 ± 0.041.
For TGAGGTTTGT, the switch fluorescence ratio was determined as 0.98 ± 0.028.
Then TGAGGTTTTC, with 1.02 ± 0.048; and TGAGGTTTTT, with 1.28 ± 0.59.
Then TGAGTACCGG, with 1.08 ± 0.1; and TGAGTATATA, with 1.02 ± 0.014.
For the sequence TGAGTATGGG, the switch fluorescence ratio was found to be 0.973 ± 0.019.
The value for TGAGTCATAC was 1.05 ± 0.033; that for TGAGTCGAGC was 1.014 ± 0.0066; that for TGAGTCTAGG was 0.9979 ± 0.0026.
On to TGAGTCTGCT, for which the switch fluorescence ratio stood at 0.998 ± 0.087.
The value for TGAGTGAGGT was 0.959 ± 0.016; that for TGAGTGCCGG was 1.18 ± 0.25.
Then TGAGTGGCTC, with 0.9793 ± 0.0053; and TGAGTGTCTG, with 0.966 ± 0.019; and TGAGTGTGCT, with 0.972 ± 0.011.
On to TGAGTGTTTT, for which the switch fluorescence ratio came out at 0.997 ± 0.027.
TGAGTTAGAT: the switch fluorescence ratio worked out at 1 ± 0.011.
The value for TGAGTTCGAA was 1 ± 0.028; that for TGAGTTTGGC was 0.9862 ± 0.0013; that for TGATAAAGGT was 0.997 ± 0.015.
The value for TGATAATAGA was 0.9953 ± 0.0011; that for TGATAATATT was 0.992 ± 0.011; that for TGATAATCGG was 0.997 ± 0.036.
The value for TGATACAAGC was 1.05 ± 0.032; that for TGATACCTGT was 0.975 ± 0.068; that for TGATAGAGCC was 1.01 ± 0.023.
Regarding TGATAGGACA, the switch fluorescence ratio was 0.983 ± 0.023.
With TGATAGGTGC, the switch fluorescence ratio was 1.19 ± 0.014.
Then TGATATAGTG, with 1.002 ± 0.01; and TGATATATGG, with 0.9872 ± 0.0081; and TGATATCACT, with 0.996 ± 0.043.
Then TGATCACTAT, with 1.007 ± 0.0076; and TGATCGCTGG, with 1.02 ± 0.042; and TGATGAATTG, with 1.04 ± 0.002.
The value for TGATGAGGAA was 0.97725 ± 0.00082.
Take TGATGCAATT: the switch fluorescence ratio was determined as 1.36 ± 0.24.
Then TGATGCATAT, with 1.1411 ± 0.0011; and TGATGCTTTG, with 0.998 ± 0.051; and TGATGGAAGG, with 0.958 ± 0.06.
The value for TGATGGAAGT was 0.986 ± 0.031.
The value for TGATGGATTG was 0.99 ± 0.028.
As for TGATGGGATG, the switch fluorescence ratio came out at 1.01 ± 0.038.
Then TGATGGGCGC, with 1.026 ± 0.0036; and TGATGGGGCA, with 1.02 ± 0.021.
The value for TGATGGTAGG was 0.981 ± 0.031; that for TGATGGTTTA was 0.996 ± 0.03; that for TGATGTAGCA was 0.979 ± 0.033.
Then TGATGTTACC, with 1.06 ± 0.02.
Consider TGATGTTAGT, for which the switch fluorescence ratio turned out to be 1.01 ± 0.024.
Then TGATGTTGAA, with 0.99891 ± 0.00059.
The value for TGATTAAGCA was 0.999 ± 0.033.
Then TGATTAGCAA, with 1.26 ± 0.3.
With TGATTAGGGT, the switch fluorescence ratio is 1.05 ± 0.076.
Then TGATTATAGG, with 0.992 ± 0.01; and TGATTCGTTC, with 1.04 ± 0.033; and TGATTCTTTT, with 0.974 ± 0.037.
Then TGATTGGTCA, with 0.967 ± 0.012; and TGATTTAAGT, with 0.992 ± 0.05; and TGATTTACAA, with 1.05 ± 0.015.
Then TGATTTGGGA, with 0.971 ± 0.015; and TGATTTGTAT, with 0.968 ± 0.018.
With TGATTTGTTT, the switch fluorescence ratio was determined as 1 ± 0.04.
The value for TGATTTTATT was 0.974 ± 0.011; that for TGCAAATTCG was 0.999 ± 0.022.
TGCAAATTTT: the switch fluorescence ratio amounted to 1 ± 0.036.
On to TGCAACGAGG, for which the switch fluorescence ratio was determined as 0.998 ± 0.035.
Consider TGCAACGTCG, for which the switch fluorescence ratio was found to be 0.998 ± 0.019.
The value for TGCAAGAGTT was 1.01 ± 0.014.
For the sequence TGCACATGGG, the switch fluorescence ratio is 1.02 ± 0.015.
The value for TGCACGTTTT was 1.09 ± 0.07.
Then TGCAGCTTGT, with 1.0186 ± 0.00048; and TGCAGGCCAA, with 1.08 ± 0.026; and TGCAGGGGGC, with 1.02 ± 0.022.
The value for TGCAGGGGTG was 1.06 ± 0.022.
As for TGCAGGGTGG, the switch fluorescence ratio turned out to be 1.05 ± 0.051.
For TGCATCGGGG, the switch fluorescence ratio came to 0.983 ± 0.032.
The value for TGCATCTGAG was 1 ± 0.021.
Then TGCATGTACC, with 1.21 ± 0.051; and TGCATGTATT, with 1.012 ± 0.0039; and TGCATGTGTC, with 0.99 ± 0.035.
The value for TGCATTACCC was 1.25 ± 0.41; that for TGCATTCATT was 0.9937 ± 0.0093.
For the sequence TGCATTTAGG, the switch fluorescence ratio was 1.02 ± 0.032.
Then TGCATTTGGG, with 0.9893 ± 0.0031; and TGCCAACAGA, with 1.25 ± 0.39.
Turning to TGCCAGGAGT, the switch fluorescence ratio came out at 1.05 ± 0.014.
With TGCCAGTACG, the switch fluorescence ratio stood at 1.064 ± 0.0044.
Then TGCCAGTGCC, with 1.04 ± 0.022.
Then TGCCATTGTT, with 0.942 ± 0.01; and TGCCCCTGGC, with 0.978 ± 0.042; and TGCCCGGGGA, with 1 ± 0.037.
The value for TGCCGAGATC was 1 ± 0.013; that for TGCCGCAGGT was 1.01 ± 0.043.
TGCCGCCGGG: the switch fluorescence ratio turned out to be 1.03 ± 0.011.
The value for TGCCGGGGCT was 0.967 ± 0.037; that for TGCCGGGTGG was 1 ± 0.063.
The value for TGCCGTTTTT was 1.02 ± 0.069.
Then TGCCTATGGG, with 0.977 ± 0.029; and TGCCTGGGGA, with 1.2 ± 0.25; and TGCCTGGTAT, with 0.984 ± 0.019.
Turning to TGCCTGTGCG, the switch fluorescence ratio came to 1.04 ± 0.031.
Then TGCGAATAGG, with 1.0088 ± 0.00022; and TGCGAATTAG, with 0.998 ± 0.019; and TGCGACTCGG, with 0.9988 ± 0.0056.
Then TGCGACTGGT, with 0.942 ± 0.024; and TGCGACTTTG, with 1.03 ± 0.018; and TGCGAGGGGG, with 1.01 ± 0.033.
On to TGCGAGGGTT, for which the switch fluorescence ratio is 1.01 ± 0.093.
Then TGCGAGTATC, with 1.02 ± 0.018; and TGCGATTGTT, with 1.01 ± 0.056; and TGCGATTTTT, with 1.01 ± 0.042.
Then TGCGCACGGG, with 1.03 ± 0.019.
The value for TGCGCCAGGG was 1.263 ± 0.0037.
